# According to PMC7928716 (Science Signaling, 2021):
# Where two headings read alike, the source gives them in different places. Square brackets hold non-standard residues; d marks the D form. * marks the point of attachment. FITC = O=C1OC2(c3ccc(O)cc3Oc3cc(O)ccc32)c2ccc(NC(=S)*)cc21; pY = N[C@@H](Cc1ccc(OP(=O)(O)O)cc1)C(=O)O; pS = N[C@@H](COP(=O)(O)O)C(=O)O
# B1: TLN1 PTB (442–770) (domain or fragment)
# chain: GVSFFLVKEKMKGKNKLVPRLLGITKECVMRVDEKTKEVIQEWNLTNIKRWAASPKSFTLDFGDYQDGYYSVQTTEGEQIAQLIAGYIDIILK
# B2: Mouse SNX17 FERM (109–388) (domain or fragment)
# chain: TQQVPTEEVSLEVLLSNGQKVLVTVLTSDQTEDVLEAVAAKLDLPDDLIGYFSLFLVREKEDGAFSFVRKLQEFELPYVSVTSLRSQEYKIVLRKSYWDSAYDDDVMENRVGLNLLYAQTVSDIEHGWILVTKEQHRQLKSLQEKVSKKEFLRLAQTLRHYGYLRFDACVADFPEKDCPVVVSAGNSELSLQLRLPGQQLREGSFRVTRMRCWRVTSSVPLPSGGTSSPSRGRGEVRLELAFEYLMSKDRLQWVTITSPQAIMMSICLQSMVDELMVKKS
# B3: FITC-labeled C-terminal peptide of ACE2(796–805) (peptide)
# peptide: {FITC}-QNTDDVQTSF-OH
# B4: FITC-labeled ACE2(787–798) peptide (peptide)
# peptide: {FITC}-SKGENNPGFQNT-NH2
# B5: NHERF3 PDZ2 (132–224) (domain or fragment)
# chain: QPRLCYLVKEGGSYGFSLKTVQGKKGVYMTDITPQGVAMRAGVLADDHLIEVNGENVEDASHEEVVEKVKKSGSRVMFLLVDKETDKRHVEQK
# Key:
# Assay in all cases: fluorescence polarisation
# [1] = target: B4
# TAX1BP3 PDZ (7–124) = target: T1, TAX1BP3 PDZ (7–124) (human, UniProt O14907 7-124)
# T1 sequence: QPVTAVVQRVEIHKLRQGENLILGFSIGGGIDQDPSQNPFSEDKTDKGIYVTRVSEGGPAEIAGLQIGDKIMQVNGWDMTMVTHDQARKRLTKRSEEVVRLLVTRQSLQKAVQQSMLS
# SCRIB PDZ1 (718–814) = SCRIB PDZ1 (718–814) (human, UniProt Q14160 718-814)
# SNTA1 PDZ (84–171) = target: T2, SNTA1 PDZ (84–171) (human, UniProt Q13424 84-171)
# T2 sequence: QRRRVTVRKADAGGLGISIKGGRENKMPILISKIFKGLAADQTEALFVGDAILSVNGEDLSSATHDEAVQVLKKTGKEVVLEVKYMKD
# MAGI1 PDZ1 (1–106) = MAGI1 PDZ1 (1–106) (human, UniProt Q96QZ7 1-106)
# MAP1LC3B ATG8 (2–119) [2] = target: T3, MAP1LC3B ATG8 (2–119) (human, UniProt Q9GZQ8 2-119)
# MAP1LC3C ATG8 (2–125) = MAP1LC3C ATG8 (2–125) (human, UniProt Q9BXW4 2-125)
# […]2 ATG8 (2–115) [3] = target: T4, […]2 ATG8 (2–115) (human, UniProt P60520 2-115)
# DOK1 PTB (151–256) = target: T5, DOK1 PTB (151–256) (human, UniProt Q99704 151-256)
# T5 sequence: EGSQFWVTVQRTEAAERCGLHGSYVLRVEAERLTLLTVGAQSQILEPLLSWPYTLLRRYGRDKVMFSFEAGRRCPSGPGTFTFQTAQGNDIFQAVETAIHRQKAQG
# FRS2 PTB (8–136) = target: T6, FRS2 PTB (8–136) (human, UniProt Q8WU20 8-136)
# T6 sequence: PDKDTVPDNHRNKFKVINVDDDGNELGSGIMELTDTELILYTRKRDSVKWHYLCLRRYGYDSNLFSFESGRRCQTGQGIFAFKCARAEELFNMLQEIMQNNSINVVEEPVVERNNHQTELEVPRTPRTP
# IRS1 PTB (157–267) = target: T7, IRS1 PTB (157–267) (human, UniProt P35568 157-267)
# T7 sequence: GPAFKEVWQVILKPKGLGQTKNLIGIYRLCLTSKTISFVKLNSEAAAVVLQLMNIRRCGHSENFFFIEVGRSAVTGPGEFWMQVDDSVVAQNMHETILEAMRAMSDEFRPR
# TLN2 PTB (309–401) = TLN2 PTB (309–401) (human, UniProt Q9Y4G6 309-401)
# MAP1LC3B ATG8 (2–119) [4] = target: T3, MAP1LC3B ATG8 (2–119); remark: listed apart in the source
# LYN SH2 (106–213) = LYN SH2 (106–213) (human, UniProt P07948 106-213)
# […]2 ATG8 (2–115) [5] = target: T4, […]2 ATG8 (2–115); remark: listed apart in the source
# [6] = target: B3
# AP2 μ2 (160–435) = target: T8, AP2 μ2 (160–435) (human, UniProt Q96CW1 160-435)
# T8 sequence: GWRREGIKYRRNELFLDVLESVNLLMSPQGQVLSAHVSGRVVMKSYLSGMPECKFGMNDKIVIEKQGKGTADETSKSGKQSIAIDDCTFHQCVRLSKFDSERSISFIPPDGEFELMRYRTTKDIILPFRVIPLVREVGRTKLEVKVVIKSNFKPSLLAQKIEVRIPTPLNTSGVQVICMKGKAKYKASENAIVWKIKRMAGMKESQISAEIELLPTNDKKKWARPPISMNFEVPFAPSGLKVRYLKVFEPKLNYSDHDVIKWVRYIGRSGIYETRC
# T4 sequence (P60520 2-115): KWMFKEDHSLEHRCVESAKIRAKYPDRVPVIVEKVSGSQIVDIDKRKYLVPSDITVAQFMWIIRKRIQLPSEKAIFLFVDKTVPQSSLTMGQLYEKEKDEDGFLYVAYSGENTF
# Sequence of MAP1LC3C ATG8 (2–125) (Q9BXW4 2-125): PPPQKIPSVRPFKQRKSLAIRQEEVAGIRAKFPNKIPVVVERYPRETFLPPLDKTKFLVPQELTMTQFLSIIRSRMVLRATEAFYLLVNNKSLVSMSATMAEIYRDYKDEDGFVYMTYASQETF
# Sequence of MAGI1 PDZ1 (1–106) (Q96QZ7 1-106): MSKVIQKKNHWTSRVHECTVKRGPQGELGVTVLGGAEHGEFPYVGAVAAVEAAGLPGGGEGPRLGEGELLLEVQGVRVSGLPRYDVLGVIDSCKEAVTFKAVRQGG
# Sequence of TLN2 PTB (309–401) (Q9Y4G6 309-401): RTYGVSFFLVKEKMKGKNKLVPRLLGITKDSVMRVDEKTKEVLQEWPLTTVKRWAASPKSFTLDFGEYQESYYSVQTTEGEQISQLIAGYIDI
# Sequence of SCRIB PDZ1 (718–814) (Q14160 718-814): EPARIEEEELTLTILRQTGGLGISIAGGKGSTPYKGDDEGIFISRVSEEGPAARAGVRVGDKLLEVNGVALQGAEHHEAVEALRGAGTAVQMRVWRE
binder,measurement,setting,value
B1,Kd,[1],> 100 µM
B2,Kd,[1],~100 µM
B3,Kd,TAX1BP3 PDZ (7–124),> 100 µM
same,Kd,SCRIB PDZ1 (718–814),> 100 µM
same,Kd,SNTA1 PDZ (84–171),> 100 µM
same,Kd,MAGI1 PDZ1 (1–106),> 100 µM
{FITC}-DDDWTHLSSK-NH2 [FITC-labeled SQSTM1(335–344) probe peptide],Kd,MAP1LC3B ATG8 (2–119) [2],1900 nM
same,Kd,MAP1LC3C ATG8 (2–125),330 nM
same,Kd,[…]2 ATG8 (2–115) [3],11 µM
B4,Kd,DOK1 PTB (151–256),> 100 µM
same,Kd,FRS2 PTB (8–136),> 100 µM
same,Kd,IRS1 PTB (157–267),> 100 µM
same,Kd,TLN2 PTB (309–401),> 100 µM
"{FITC}-RSGENPYA[pS]IDISKGE-NH2 [FITC-labeled ACE2(775–790) peptide, pSer783]",Kd,MAP1LC3B ATG8 (2–119) [4],> 100 µM
same,Kd,LYN SH2 (106–213),> 100 µM
same,Kd,[…]2 ATG8 (2–115) [5],> 100 µM
"{FITC}-RSGENPYASIDISKGE-NH2 [FITC-labeled ACE2(775–790) peptide, unphosphorylated]",Kd,MAP1LC3B ATG8 (2–119) [4],> 100 µM
same,Kd,LYN SH2 (106–213),> 100 µM
same,Kd,[…]2 ATG8 (2–115) [5],> 100 µM
B5,Kd,[6],> 100 µM
"{FITC}-RSGENP[pY]ASIDISKGE-NH2 [FITC-labeled ACE2(775–790) peptide, pTyr781]",Kd,MAP1LC3B ATG8 (2–119) [4],> 100 µM
same,Kd,[…]2 ATG8 (2–115) [5],> 100 µM
{FITC}-FDTEYQRLEAS-NH2 [FITC-labeled ATG9A(4–14) probe peptide],Kd,AP2 μ2 (160–435),1640 nM
